Laboratory results taken from PMC10784468 (Nature Communications, 2024).
Values joined by “and” are separate entries in the source; they are usually repeats but may differ in a detail not shown here. Equal entries are not always repeated. Where two headings read alike, the source gives them in different places. Positions of bridges follow the written chain, without caps; N, C: chain ends. Residues, ends and D or L forms follow the SMILES beside them. *: point of attachment. X1 = O=C(O)c1ccc(-c2c3nc(c(-c4ccc(C(=O)O)cc4)c4ccc([nH]4)c(-c4ccc(C(=O)*)cc4)c4nc(c(-c5ccc(C(=O)O)cc5)c5ccc2[nH]5)C=C4)C=C3)cc1; X2 = O=C(O)C/C(=C/C(=O)*)C(=O)O

Assays:
[1] = remark: listed apart in the source
Protocol: The main organs (heart, liver, spleen, lung, kidney and intestine) of healthly BALB/c nude mice (~8 weeks old, 18 g) were collected under euthanasia after treatment with PBS and Gi-F-CAA (8, 12 and 16 mg/kg in 100 μL PBS) for 1 day. Afterwards, the histology evaluation by Hematoxylin and Eosin (H&E) Staining was carried out by Servicebio Technology Co., Ltd. (Wuhan, China). Meanwhile, the whole blood and serum of healthly BALB/c nude mice (~8 weeks old, 18 g) were collected after treatment with PBS and Gi-F-CAA (8, 12 and 16 mg/kg in 100 μL PBS) for 1 days. The blood biochemistry analysis was performed with Hitachi Automatic Biochemical Analyzer 7100. The blood routine analysis was carried out by Vital River Laboratory Animal Technology Co., Ltd. (Beijing, China).

[2] = healthy mice, i.v. 8, 12 and 16 mg/kg, 1 day post-injection

Compound: CC(C)C[C@H](NC(=O)c1ccc(-c2c3nc(c(-c4ccc(C(=O)O)cc4)c4ccc([nH]4)c(-c4ccc(C(=O)O)cc4)c4nc(c(-c5ccc(C(=O)O)cc5)c5ccc2[nH]5)C=C4)C=C3)cc1)C(=O)N[C@@H](CCCCNC(=O)/C=C(/CC(=O)O)C(=O)O)C(=O)N[C@@H](CC(C)C)C(=O)N[C@@H](CCCCN)C(=O)N[C@@H](CC(C)C)C(=O)N[C@@H](CCCCNC(=O)/C=C(/CC(=O)O)C(=O)O)C(=O)NCC(=O)N[C@@H](C)C(=O)N[C@H]1CSSC[C@@H](C(=O)N2CCC[C@H]2C(=O)N[C@H](C(=O)O)C(C)C)NC(=O)[C@@H]2CCCN2C(=O)[C@H](Cc2ccc(O)cc2)NC(=O)[C@H](CC(C)C)NC(=O)[C@@H]2CCCN2C(=O)[C@H](CC(C)C)NC(=O)[C@H](Cc2c[nH]c3ccccc23)NC(=O)[C@H](CC(N)=O)NC1=O [Gi-F-CAA] (X1-LK(X2)LKLK(X2)GACNWLPLYPCPV-OH; disulfide 9-17; C-terminus assumed)
- DLS size distribution, Number (%): 0.000191% and 14% and 7.4%
- ALP ([1]; 8 mg/kg, mice 1): 152 U/L
- ALT ([1]; 8 mg/kg, mice 1): 62 U/L
- AST ([1]; 8 mg/kg, mice 1): 183 U/L
- BUN ([1]; 8 mg/kg, mice 1): 13.2 mmol/L
- CREA ([1]; 8 mg/kg, mice 1): 30.8 µmol/L
- HGB ([1]; 8 mg/kg, mice 1): 15.7 g/dL
- NEUT ([1]; 8 mg/kg, mice 1): 0.4 109/L
- PLT ([1]; 8 mg/kg, mice 1): 985 109/L
- RBC ([1]; 8 mg/kg, mice 1): 10.6 1012/L
- WBC ([1]; 8 mg/kg, mice 1): 1.8 109/L
- ALP ([1]; 8 mg/kg, mice 2): 159 U/L
- ALT ([1]; 8 mg/kg, mice 2): 60 U/L
- AST ([1]; 8 mg/kg, mice 2): 184 U/L
- BUN ([1]; 8 mg/kg, mice 2): 14.42 mmol/L
- CREA ([1]; 8 mg/kg, mice 2): 28.8 µmol/L
- HGB ([1]; 8 mg/kg, mice 2): 15.4 g/dL
- NEUT ([1]; 8 mg/kg, mice 2): 0.3 109/L
- PLT ([1]; 8 mg/kg, mice 2): 1198 109/L
- RBC ([1]; 8 mg/kg, mice 2): 10.1 1012/L
- WBC ([1]; 8 mg/kg, mice 2): 1.5 109/L
- ALP ([1]; 8 mg/kg, mice 3): 145 U/L
- ALT ([1]; 8 mg/kg, mice 3): 56 U/L
- AST ([1]; 8 mg/kg, mice 3): 193 U/L
- BUN ([1]; 8 mg/kg, mice 3): 13.94 mmol/L
- CREA ([1]; 8 mg/kg, mice 3): 31.6 µmol/L
- HGB ([1]; 8 mg/kg, mice 3): 15.9 g/dL
- NEUT ([1]; 8 mg/kg, mice 3): 0.3 109/L
- PLT ([1]; 8 mg/kg, mice 3): 1073 109/L
- RBC ([1]; 8 mg/kg, mice 3): 9 1012/L
- WBC ([1]; 8 mg/kg, mice 3): 1.7 109/L
- ALP ([1]; 8 mg/kg, mice 4): 159 U/L
- ALT ([1]; 8 mg/kg, mice 4): 63 U/L
- AST ([1]; 8 mg/kg, mice 4): 180 U/L
- BUN ([1]; 8 mg/kg, mice 4): 13.15 mmol/L
- CREA ([1]; 8 mg/kg, mice 4): 31 µmol/L
- HGB ([1]; 8 mg/kg, mice 4): 15.3 g/dL
- NEUT ([1]; 8 mg/kg, mice 4): 0.4 109/L
- PLT ([1]; 8 mg/kg, mice 4): 1117 109/L
- RBC ([1]; 8 mg/kg, mice 4): 10 1012/L
- WBC ([1]; 8 mg/kg, mice 4): 2 109/L
- ALP ([1]; 12 mg/kg, mice 1): 150 U/L
- ALT ([1]; 12 mg/kg, mice 1): 61 U/L
- AST ([1]; 12 mg/kg, mice 1): 192 U/L
- BUN ([1]; 12 mg/kg, mice 1): 13.27 mmol/L
- CREA ([1]; 12 mg/kg, mice 1): 30 µmol/L
- HGB ([1]; 12 mg/kg, mice 1): 15.2 g/dL
- NEUT ([1]; 12 mg/kg, mice 1): 0.4 109/L
- PLT ([1]; 12 mg/kg, mice 1): 991 109/L
- RBC ([1]; 12 mg/kg, mice 1): 9 1012/L
- WBC ([1]; 12 mg/kg, mice 1): 1.9 109/L
- ALP ([1]; 12 mg/kg, mice 2): 145 U/L
- ALT ([1]; 12 mg/kg, mice 2): 63 U/L
- AST ([1]; 12 mg/kg, mice 2): 191 U/L
- BUN ([1]; 12 mg/kg, mice 2): 13.11 mmol/L
- CREA ([1]; 12 mg/kg, mice 2): 28.5 µmol/L
- HGB ([1]; 12 mg/kg, mice 2): 15.4 g/dL
- NEUT ([1]; 12 mg/kg, mice 2): 0.3 109/L
- PLT ([1]; 12 mg/kg, mice 2): 1110 109/L
- RBC ([1]; 12 mg/kg, mice 2): 9.3 1012/L
- WBC ([1]; 12 mg/kg, mice 2): 1.6 109/L
- ALP ([1]; 12 mg/kg, mice 3): 153 U/L
- ALT ([1]; 12 mg/kg, mice 3): 60 U/L
- AST ([1]; 12 mg/kg, mice 3): 190 U/L
- BUN ([1]; 12 mg/kg, mice 3): 12.9 mmol/L
- CREA ([1]; 12 mg/kg, mice 3): 30.6 µmol/L
- HGB ([1]; 12 mg/kg, mice 3): 15.6 g/dL
- NEUT ([1]; 12 mg/kg, mice 3): 0.3 109/L
- PLT ([1]; 12 mg/kg, mice 3): 1144 109/L
- RBC ([1]; 12 mg/kg, mice 3): 10 1012/L
- WBC ([1]; 12 mg/kg, mice 3): 1.9 109/L
- ALP ([1]; 12 mg/kg, mice 4): 146 U/L
- ALT ([1]; 12 mg/kg, mice 4): 60 U/L
- AST ([1]; 12 mg/kg, mice 4): 190 U/L
- BUN ([1]; 12 mg/kg, mice 4): 13.29 mmol/L
- CREA ([1]; 12 mg/kg, mice 4): 29.9 µmol/L
- HGB ([1]; 12 mg/kg, mice 4): 16.4 g/dL
- NEUT ([1]; 12 mg/kg, mice 4): 0.3 109/L
- PLT ([1]; 12 mg/kg, mice 4): 1087 109/L
- RBC ([1]; 12 mg/kg, mice 4): 10.1 1012/L
- WBC ([1]; 12 mg/kg, mice 4): 2.1 109/L
- ALP ([1]; 16 mg/kg, mice 1): 150 U/L
- ALT ([1]; 16 mg/kg, mice 1): 57 U/L
- AST ([1]; 16 mg/kg, mice 1): 182 U/L
- BUN ([1]; 16 mg/kg, mice 1): 14.18 mmol/L
- CREA ([1]; 16 mg/kg, mice 1): 31.7 µmol/L
- HGB ([1]; 16 mg/kg, mice 1): 15.7 g/dL
- NEUT ([1]; 16 mg/kg, mice 1): 0.4 109/L
- PLT ([1]; 16 mg/kg, mice 1): 1194 109/L
- RBC ([1]; 16 mg/kg, mice 1): 9.6 1012/L
- WBC ([1]; 16 mg/kg, mice 1): 2 109/L
- ALP ([1]; 16 mg/kg, mice 2): 145 U/L
- ALT ([1]; 16 mg/kg, mice 2): 56 U/L
- AST ([1]; 16 mg/kg, mice 2): 188 U/L
- BUN ([1]; 16 mg/kg, mice 2): 13.21 mmol/L
- CREA ([1]; 16 mg/kg, mice 2): 29.4 µmol/L
- HGB ([1]; 16 mg/kg, mice 2): 15.3 g/dL
- NEUT ([1]; 16 mg/kg, mice 2): 0.3 109/L
- PLT ([1]; 16 mg/kg, mice 2): 984 109/L
- RBC ([1]; 16 mg/kg, mice 2): 10.5 1012/L
- WBC ([1]; 16 mg/kg, mice 2): 1.5 109/L
- ALP ([1]; 16 mg/kg, mice 3): 148 U/L
- ALT ([1]; 16 mg/kg, mice 3): 64 U/L
- AST ([1]; 16 mg/kg, mice 3): 180 U/L
- BUN ([1]; 16 mg/kg, mice 3): 12.87 mmol/L
- CREA ([1]; 16 mg/kg, mice 3): 28.9 µmol/L
- HGB ([1]; 16 mg/kg, mice 3): 15.1 g/dL
- NEUT ([1]; 16 mg/kg, mice 3): 0.3 109/L
- PLT ([1]; 16 mg/kg, mice 3): 1087 109/L
- RBC ([1]; 16 mg/kg, mice 3): 10.6 1012/L
- WBC ([1]; 16 mg/kg, mice 3): 1.9 109/L
- ALP ([1]; 16 mg/kg, mice 4): 146 U/L
- ALT ([1]; 16 mg/kg, mice 4): 59 U/L
- AST ([1]; 16 mg/kg, mice 4): 193 U/L
- BUN ([1]; 16 mg/kg, mice 4): 12.98 mmol/L
- CREA ([1]; 16 mg/kg, mice 4): 32.5 µmol/L
- HGB ([1]; 16 mg/kg, mice 4): 15 g/dL
- NEUT ([1]; 16 mg/kg, mice 4): 0.4 109/L
- PLT ([1]; 16 mg/kg, mice 4): 1072 109/L
- RBC ([1]; 16 mg/kg, mice 4): 9.8 1012/L
- WBC ([1]; 16 mg/kg, mice 4): 1.9 109/L
- blood routine examination (WBC, RBC, PLT, LYMPH, NEUT) ([1]; healthy mice, i.v. 8, 12 and 16 mg/kg, 1 day): comparable with that of PBS group
- hepatic and renal function markers (ALT, AST, ALP, BUN, CRE) [1, 2]: normal ranges of values
- histopathology (H&E) of major organs [1, 2]: no remarkable histopathological damages
